A short description of the series: Protein release experiment (EGF in supernatant by HPLC). The format is physicochemical. As to conditions: 20 ug/ml in HA-Ad/HA-CD hydrogel, 500 ul PBS; for amount of EGF released over time (rank order): supernatant by HPLC according to date. Here is the method: Aldehyde groups were introduced to the hyaluronic acid-adamantane (HA-Ad) derivative and hyaluronic acid (HA) using […].
The HA-Ad derivative and HA, to which the aldehyde group had been introduced, were allowed to react with an EGF protein using sodium cyanoborohydride to induce an aldehyde-amine reaction, thereby preparing conjugates. Through the aldehyde-amine reaction, a HA-Ad-EGF conjugate and a HA-EGF conjugate were prepared.
Each of EGF, the prepared HA-Ad-EGF conjugate, and the prepared HA-EGF conjugate was added at a concentration of 20 ug/ml to a 5 wt % hyaluronic acid-adamantane (HA-Ad) derivative solution. 50 ul of a 5 wt % hyaluronic acid-cyclodextrin (HA-CD) derivative solution was added to 50 ul of each of the resulting solutions and then mixed to prepare a hydrogel.
The hydrogel was input into an E-tube and centrifuged to remove air bubbles inside the gel. 500 ul of PBS was added to each hydrogel.
The concentration of EGF included in a supernatant was analyzed by high-performance liquid chromatography (HPLC) according to date.

From patent publication US20210393800A1, “PREPARATION AND APPLICATION OF SUPRAMOLECULAR SELF-ASSEMBLED HYALURONIC ACID HYDROGEL” (PHI BioMed Inc., priority 2018, published 2021) come the findings set out here.

Regarding “EGF: EGF protein used by itself in preparation of the hydrogel”, the “amount of EGF released over time (rank order)” value (“amount … over time (rank order)” below) is “HA-Ad-EGF<HA-EGF<EGF”.
For the substance “HA-Ad-EGF: EGF protein bound to aldehyde-modified HA-Ad derivative through an aldehyde-amine reaction; carried in the hydrogel”, the protein release behaviour result was “release a constant concentration of protein most slowly for a long period of time” and the “amount … over time (rank order)” value was “HA-Ad-EGF<HA-EGF<EGF”.
Consider “HA-EGF: EGF protein bound to aldehyde-modified hyaluronic acid through an aldehyde-amine reaction; carried in the hydrogel”, for which the “amount … over time (rank order)” value is recorded as “HA-Ad-EGF<HA-EGF<EGF”.
